Biological target: recombinant Fc−ICAM-1 (human) (UniProt P05362)
Test: BLI; Octet QKe; DBLβ domains on an Fc−ICAM-1 probe; apparent Kd from double-reference-subtracted data of three concentrations, global 1:1 Langmuir fit

Chain of UniProt P05362 (P05362 28-480): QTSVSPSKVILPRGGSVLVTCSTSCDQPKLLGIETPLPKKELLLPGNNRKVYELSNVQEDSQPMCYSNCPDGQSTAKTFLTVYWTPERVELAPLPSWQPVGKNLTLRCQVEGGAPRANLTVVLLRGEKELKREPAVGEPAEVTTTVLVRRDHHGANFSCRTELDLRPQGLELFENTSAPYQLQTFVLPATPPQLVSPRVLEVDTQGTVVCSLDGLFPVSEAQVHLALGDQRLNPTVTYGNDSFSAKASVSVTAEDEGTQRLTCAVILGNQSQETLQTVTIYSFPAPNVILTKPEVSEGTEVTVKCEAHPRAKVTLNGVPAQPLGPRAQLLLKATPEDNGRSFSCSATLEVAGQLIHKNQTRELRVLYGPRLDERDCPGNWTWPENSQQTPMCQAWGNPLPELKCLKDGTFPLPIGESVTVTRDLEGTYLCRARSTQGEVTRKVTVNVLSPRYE

“IT4var07DBLβ1 (N726-C1211) (domain or fragment)” showed a Kd of 8.7 nM.

Source: article PMC4958245
